Reference: the Human Domainome abundance scans (Beltran et al. 2025)
± gives the uncertainty stated by the source.

B1: Nucleosome-remodeling factor subunit BPTF, residues 2862 to 2918; numbered along this chain, Q12830 (parent)
chain: TKKDTKLYCICKTPYDESKFYIGCDRCQNWYHGRCVGILQSEAELIDEYVCPQCQST

Variants of: B1
Experiment: abundance fitness (aPCA) (normalised: wild type 0, dead -1); higher = more abundant; growth selection in yeast, the domain comes from the species named
Conditions: Homo sapiens

Abundance fitness, by site and new letter:
F20: P -0.001 ± 0.097 | Y -0.08 ± 0.12 | L -0.193 ± 0.075 | G -0.226 ± 0.08 | M -0.149 ± 0.087 | W -0.083 ± 0.08 | K -0.192 ± 0.099 | C -0.346 ± 0.11 | Q -0.104 ± 0.092 | N -0.044 ± 0.13 | A -0.161 ± 0.09 | S -0.11 ± 0.072 | T -0.009 ± 0.093 | D -0.062 ± 0.13 | E -0.002 ± 0.1 | R -0.149 ± 0.067 | I -0.244 ± 0.12
C9: T -0.851 ± 0.081 | V -0.986 ± 0.084
S18: I -1.05 ± 0.26 | A -0.217 ± 0.14 | C -0.366 ± 0.1 | Y -0.37 ± 0.13 | G -0.087 ± 0.1 | M -0.284 ± 0.23 | R -0.24 ± 0.095 | H -0.098 ± 0.11 | N -0.185 ± 0.14 | T -0.198 ± 0.12 | K -0.277 ± 0.27 | W -0.746 ± 0.21 | L -0.536 ± 0.1 | P -0.759 ± 0.13 | Q -0.5 ± 0.29 | F -0.582 ± 0.14 | D -0.031 ± 0.19 | V -0.72 ± 0.12
I22: F -0.609 ± 0.2 | D -0.819 ± 0.22 | T -0.398 ± 0.12 | P -0.87 ± 0.12 | C -0.806 ± 0.16 | S -0.786 ± 0.1 | A -0.578 ± 0.1 | G -0.649 ± 0.086 | N -0.803 ± 0.18 | L 0.015 ± 0.067 | V -0.038 ± 0.088 | E -0.953 ± 0.15 | M -0.237 ± 0.12 | Q -0.641 ± 0.11 | H -0.678 ± 0.22 | R -0.475 ± 0.073 | K -0.551 ± 0.12 | Y -0.617 ± 0.15 | W -0.533 ± 0.11
C11: E -0.638 ± 0.15 | R -0.818 ± 0.1 | A -0.934 ± 0.094 | W -1.09 ± 0.19 | V -1.03 ± 0.1 | M -0.803 ± 0.14 | Y -0.997 ± 0.1 | I -0.968 ± 0.18 | Q -0.947 ± 0.17 | D -0.759 ± 0.11 | H -1.01 ± 0.2 | K -0.822 ± 0.15 | N -0.857 ± 0.21 | F -1.12 ± 0.19 | L -0.828 ± 0.092 | S -0.934 ± 0.093 | G -0.771 ± 0.079 | P -0.802 ± 0.12
Y21: V -0.19 ± 0.091 | C -0.369 ± 0.17 | I -0.237 ± 0.17 | T -0.3 ± 0.13 | G -0.395 ± 0.12 | N -0.134 ± 0.19 | Q -0.359 ± 0.12 | H -0.188 ± 0.17 | P -0.658 ± 0.14 | K -0.196 ± 0.18 | F -0.161 ± 0.16 | L -0.245 ± 0.088 | R -0.151 ± 0.084 | W -0.08 ± 0.11 | A 0.006 ± 0.12 | E -0.245 ± 0.14 | M 0.118 ± 0.11
R26: E -0.087 ± 0.11 | M -0.193 ± 0.1 | I 0.043 ± 0.087 | N 0.075 ± 0.099 | F -0.279 ± 0.11 | W -0.278 ± 0.14 | K -0.17 ± 0.099 | S 0.008 ± 0.077 | V -0.18 ± 0.075 | P -0.207 ± 0.1 | L -0.068 ± 0.065 | T 0.067 ± 0.094 | G 0.041 ± 0.077 | Y -0.11 ± 0.094 | H 0.064 ± 0.1 | Q -0.203 ± 0.11 | D -0.029 ± 0.095
P14: T -0.206 ± 0.083 | K -0.096 ± 0.1 | S -0.161 ± 0.074 | D -0.581 ± 0.12 | Q -0.263 ± 0.092 | A 0.008 ± 0.08 | V -0.229 ± 0.087 | W -0.447 ± 0.088 | I -0.216 ± 0.16 | E -0.163 ± 0.11 | H -0.275 ± 0.11 | Y -0.131 ± 0.13 | C -0.367 ± 0.11 | G -0.42 ± 0.075 | N -0.191 ± 0.14 | M -0.096 ± 0.095 | L -0.212 ± 0.085
I10: M -0.252 ± 0.11 | D -0.278 ± 0.11 | C -0.245 ± 0.1 | Q -0.472 ± 0.1 | F -0.307 ± 0.11 | S -0.387 ± 0.084 | P -0.395 ± 0.096 | N -0.446 ± 0.18 | H -0.084 ± 0.17 | E -0.129 ± 0.089 | R -0.368 ± 0.072 | G -0.387 ± 0.073 | K -0.218 ± 0.13 | W -0.398 ± 0.096 | T -0.249 ± 0.099 | V -0.218 ± 0.071 | Y -0.234 ± 0.11
K12: H -0.061 ± 0.097 | Q 0.006 ± 0.086 | R -0.07 ± 0.062 | Y -0.134 ± 0.1 | E -0.025 ± 0.15 | W -0.56 ± 0.088 | C -0.104 ± 0.067 | S -0.119 ± 0.058 | T -0.106 ± 0.074 | D -0.2 ± 0.12 | P -0.907 ± 0.12 | L -0.121 ± 0.062 | F -0.253 ± 0.084 | N -0.233 ± 0.12 | I -0.869 ± 0.14 | V -0.808 ± 0.094 | M -0.167 ± 0.095
C27: K -0.822 ± 0.09 | Y -0.844 ± 0.15 | P -1.08 ± 0.14 | G -0.758 ± 0.089 | F -0.843 ± 0.2 | L -1.04 ± 0.11 | V -0.803 ± 0.13 | S -0.811 ± 0.091 | A -1.05 ± 0.13 | R -0.915 ± 0.085 | W -0.907 ± 0.097 | H -1.11 ± 0.29 | T -0.871 ± 0.1 | Q -0.956 ± 0.1 | D -0.962 ± 0.25 | M -0.816 ± 0.1 | N -0.674 ± 0.19 | I -1.15 ± 0.29 | E -0.785 ± 0.096
Q28: A -0.14 ± 0.094 | W -0.236 ± 0.11 | P -0.193 ± 0.088 | K 0.084 ± 0.1 | I -0.342 ± 0.11 | R -0.081 ± 0.073 | T -0.081 ± 0.081 | M -0.096 ± 0.082 | E -0.072 ± 0.15 | G -0.028 ± 0.094 | S 0.048 ± 0.068 | F -0.221 ± 0.1 | H 0.009 ± 0.11 | C 0.126 ± 0.12 | D -0.079 ± 0.12 | N -0.133 ± 0.12
Y15: D -0.438 ± 0.11 | H -0.106 ± 0.12 | T -0.303 ± 0.075 | I -0.073 ± 0.1 | F -0.02 ± 0.1 | A -0.366 ± 0.081 | K -0.131 ± 0.091 | Q -0.665 ± 0.14 | C -0.505 ± 0.13 | V -0.275 ± 0.074 | G -0.492 ± 0.076 | P -0.313 ± 0.082 | N -0.593 ± 0.2 | W -0.118 ± 0.094 | E -0.489 ± 0.1 | S -0.539 ± 0.073 | M -0.005 ± 0.073
E17: A -0.042 ± 0.076 | S -0.065 ± 0.078 | G 0.055 ± 0.08 | M -0.131 ± 0.1 | H -0.168 ± 0.14 | N -0.172 ± 0.11 | L -0.172 ± 0.065 | Y -0.294 ± 0.12 | R -0.304 ± 0.063 | C -0.288 ± 0.084 | T -0.2 ± 0.083 | Q -0.074 ± 0.09 | F -0.052 ± 0.11 | P -0.153 ± 0.081 | K -0.013 ± 0.099 | W -0.412 ± 0.081 | V -0.289 ± 0.068 | D -0.013 ± 0.1 | I -0.155 ± 0.1
D16: R -0.515 ± 0.077 | K -0.452 ± 0.11 | C -0.449 ± 0.14 | L -0.555 ± 0.069 | I -0.624 ± 0.14 | H -0.55 ± 0.093 | N -0.181 ± 0.12 | W -0.778 ± 0.18 | T -0.366 ± 0.076 | M -0.194 ± 0.11 | A -0.441 ± 0.067 | V -0.315 ± 0.064 | G -0.564 ± 0.1 | P -0.622 ± 0.1 | S -0.362 ± 0.072 | Q -0.182 ± 0.1 | Y -0.757 ± 0.13
D25: F -0.168 ± 0.16 | E 0.058 ± 0.07 | S 0.054 ± 0.064 | K 0.154 ± 0.11 | R 0.025 ± 0.067 | P -0.204 ± 0.081 | H -0.061 ± 0.15 | A -0.011 ± 0.078 | Q 0.099 ± 0.099 | L -0.021 ± 0.061 | W -0.176 ± 0.083 | T 0.056 ± 0.078 | N 0 ± 0.1 | G -0.041 ± 0.092 | I -0.15 ± 0.16
G23: Q -0.079 ± 0.12 | Y -0.031 ± 0.13 | C -0.007 ± 0.12 | W -0.177 ± 0.11 | M -0.016 ± 0.12 | H 0.029 ± 0.14 | P -0.297 ± 0.1 | I -0.546 ± 0.2 | S -0.085 ± 0.079 | F -0.139 ± 0.13 | N -0.133 ± 0.14 | V -0.223 ± 0.079 | D -0.085 ± 0.096 | T -0.021 ± 0.095 | K -0.13 ± 0.13 | R -0.126 ± 0.078 | A -0.099 ± 0.077
N29: A 0.06 ± 0.2 | C -0.353 ± 0.096 | G -0.068 ± 0.12 | F -0.307 ± 0.11 | E -0.328 ± 0.29
K19: M -0.08 ± 0.098 | F -0.351 ± 0.16 | S -0.186 ± 0.09 | D 0.044 ± 0.12 | Y -0.286 ± 0.13 | R 0.048 ± 0.1 | N 0.082 ± 0.18 | C -0.252 ± 0.13 | G -0.244 ± 0.11 | V -0.108 ± 0.087 | W -0.668 ± 0.17 | Q -0.097 ± 0.13 | A -0.069 ± 0.096 | L -0.059 ± 0.071 | E 0.106 ± 0.12 | P -0.637 ± 0.15 | H 0.007 ± 0.14 | I -0.101 ± 0.089 | T -0.231 ± 0.1
T13: Q -0.116 ± 0.17 | R -0.22 ± 0.12 | M -0.176 ± 0.14 | D -0.54 ± 0.19 | N -0.297 ± 0.074 | I -0.482 ± 0.08 | A -0.357 ± 0.18 | G -0.567 ± 0.46 | H -0.518 ± 0.14 | S -0.116 ± 0.071 | P -0.674 ± 0.12 | C -0.577 ± 0.19 | L -0.292 ± 0.093 | K -0.044 ± 0.11
C24: D -0.765 ± 0.12 | V -0.908 ± 0.11 | L -0.884 ± 0.087 | F -0.735 ± 0.14 | A -1.02 ± 0.16 | T -0.933 ± 0.12 | E -0.641 ± 0.14 | N -0.966 ± 0.16 | Y -0.894 ± 0.1 | H -0.972 ± 0.18 | I -0.871 ± 0.16 | W -0.974 ± 0.15 | M -1.05 ± 0.13 | G -0.909 ± 0.13 | S -0.976 ± 0.1 | R -0.584 ± 0.096 | P -0.539 ± 0.095
